Laboratory results from patent US20150203577A1 (Chugai, published 2015).
Residue numbers refer to the chain shown, from its start. Values joined by “and” are separate entries in the source; they are usually repeats but may differ in a detail not shown here. Equal entries are not always repeated.

T1: mouse FcγRIII extracellular domain, C-terminal His tag (mouse, UniProt P08508 31-215)
T1 construct: Whole entry named; also called mFcγRIII; mFcgRIII
T1 chain: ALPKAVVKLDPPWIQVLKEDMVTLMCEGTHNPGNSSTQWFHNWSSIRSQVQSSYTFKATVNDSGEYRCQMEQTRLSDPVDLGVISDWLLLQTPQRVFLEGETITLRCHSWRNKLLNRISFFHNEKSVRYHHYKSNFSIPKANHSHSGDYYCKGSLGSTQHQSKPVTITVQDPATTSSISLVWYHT

T2: mouse FcγRII extracellular domain, C-terminal His tag (mouse, UniProt P08101 30-210)
T2 construct: Whole entry named; also called mFcγRII; mFcgRII
T2 sequence: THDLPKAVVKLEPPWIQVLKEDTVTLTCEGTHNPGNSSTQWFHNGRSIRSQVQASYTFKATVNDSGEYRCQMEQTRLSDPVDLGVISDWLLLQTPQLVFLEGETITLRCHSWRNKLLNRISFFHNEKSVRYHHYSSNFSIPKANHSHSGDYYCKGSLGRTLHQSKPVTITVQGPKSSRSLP

T3: mouse FcγRII extracellular domain, C-terminally His-tagged (mouse, UniProt P08101 30-210)
T3 construct: the whole entry is named; also called mFcγRII; mFcgRII
T3 sequence: T2 sequence

T4: mouse FcγRIII extracellular domain, C-terminally His-tagged (mouse, UniProt P08508 31-215)
T4 construct: the whole entry is named; also called mFcγRIII; mFcgRIII
T4 chain: T1 chain

T5: mouse FcγRII (mouse, UniProt P08101 30-210)
T5 construct: Extracellular domain with C-terminal His tag, made in FreeStyle 293 cells; also called mFcγRII; mFcgRII
T5 sequence: T2 sequence

T6: mouse FcγRIII (mouse, UniProt P08508 31-215)
T6 construct: Extracellular domain with C-terminal His tag, made in FreeStyle 293 cells; also called mFcγRIII; mFcgRIII
T6 chain: T1 chain

B1: H237-MB682/MRAL-k0 (antibody)
heavy: QVQLQESGPGLVKPSETLSLTCAVSGHSISHDHAWSWVRQPPGEGLEWIGFISYSGITNYNPSLQGRVTISRDNSKNTLYLQMNSLRAEDTAVYYCARSLARTTAMDYWGEGTLVTVSSAKTTPPSVYPLAPGSAAQTNSMVTLGCLVKGYFPEPVTVTWNSGSLSSGVHTFPAVLQSDLYTLSSSVTVPSSTWPSETVTCNVAHPASSTKVDKKIVPRDCGCKPCICEPKEVEDVFIFPPKPKDVLTITLTPKVTCVVVDISKDDPEVQFSWFVDDVEVHTAQTQPREEQFNSTFRSVSELPIMHQDWLNGKEFKCRVNSAAFPAPIEKTISKTKGRPKAPQVYTIPPPKEQMAKDKVSLTCMITDFFPEDITVEWQWNGQPAENYKNTQPIMDTDGSYFVYSKLNVQKSNWEAGNTFTCSVLHEGLHNHHTEKSLSHSPGK
light: not shown
notes: copies: 2 + 2
B2: H237-MB621/MRAL-k0 (antibody, mouse IgG1, kappa)
heavy: B1 heavy with E229T, P230V, K231P, E234D, D235E
light: not shown
notes: copies: 2 + 2
B3: H237-MB678/MRAL-k0 (antibody)
heavy: B1 heavy with P230V
light: not shown
notes: copies: 2 + 2
B4: H237-MB618/MRAL-k0 (antibody, mouse IgG1, kappa)
heavy: B1 heavy with E229T, P230V, K231P, V233E, E234D
light: not shown
notes: copies: 2 + 2
B5: H237-MB676/MRAL-k0 (antibody)
heavy: B1 heavy with K231N, D235K
light: not shown
notes: copies: 2 + 2
B6: H237-MB609/MRAL-k0 (antibody, mouse IgG1, kappa)
heavy: B1 heavy with E229T, P230V, K231P, D235E, S263M
light: not shown
notes: copies: 2 + 2
B7: H237-MB614/MRAL-k0 (antibody, mouse IgG1, kappa)
heavy: B1 heavy with E229T, P230V, K231P, V233E
light: not shown
notes: copies: 2 + 2
B8: H237-MB620/MRAL-k0 (antibody, mouse IgG1, kappa)
heavy: B1 heavy with E229T, P230V, K231P, E234D, S263M
light: not shown
notes: copies: 2 + 2
B9: H237-MB679/MRAL-k0 (antibody)
heavy: B1 heavy with P230D
light: not shown
notes: copies: 2 + 2
B10: H237-MB611/MRAL-k0 (antibody, mouse IgG1, kappa)
heavy: B1 heavy with E229T, P230V, K231P, V233E, E234D, D235E
light: not shown
notes: copies: 2 + 2
B11: H237-MB619/MRAL-k0 (antibody, mouse IgG1, kappa)
heavy: B1 heavy with E229T, P230V, K231P, E234D, F237D
light: not shown
notes: copies: 2 + 2
B12: H237-MB615/MRAL-k0 (antibody, mouse IgG1, kappa)
heavy: B1 heavy with E229T, P230V, K231P, F237D
light: not shown
notes: copies: 2 + 2
B13: H237-MB612/MRAL-k0 (antibody, mouse IgG1, kappa)
heavy: B1 heavy with E229T, P230V, K231P, E234D, D235E, F237D
light: not shown
notes: copies: 2 + 2
B14: H237-MB683/MRAL-k0 (antibody)
heavy: B1 heavy with P230T
light: not shown
notes: copies: 2 + 2
B15: H237-MB616/MRAL-k0 (antibody, mouse IgG1, kappa)
heavy: B1 heavy with E229T, P230V, K231P, S263M
light: not shown
notes: copies: 2 + 2
B16: H237-MB622/MRAL-k0 (antibody, mouse IgG1, kappa)
heavy: B1 heavy with E229T, P230V, K231P, E234D
light: not shown
notes: copies: 2 + 2
B17: H237-MB684/MRAL-k0 (antibody)
heavy: B1 heavy with E229Q
light: not shown
notes: copies: 2 + 2
B18: H237-MB617/MRAL-k0 (antibody, mouse IgG1, kappa)
heavy: B1 heavy with E229T, P230V, K231P, V233E, E234S, F237D
light: not shown
notes: copies: 2 + 2
B19: H237-MB613/MRAL-k0 (antibody, mouse IgG1, kappa)
heavy: B1 heavy with E229T, P230V, K231P, E234D, D235E, S263M
light: not shown
notes: copies: 2 + 2
B20: H237-MB680/MRAL-k0 (antibody)
heavy: B1 heavy with P230N
light: not shown
notes: copies: 2 + 2
B21: H237-MB681/MRAL-k0 (antibody)
heavy: B1 heavy
light: not shown
notes: copies: 2 + 2
B22: H237-MB623/MRAL-k0 (antibody, mouse IgG1, kappa)
heavy: B1 heavy with P230A, K231Y, D235L
light: not shown
notes: copies: 2 + 2
B23: H237-MB627/MRAL-k0 (antibody, mouse IgG1, kappa)
heavy: B1 heavy with P230V, K231Y, D235L
light: not shown
notes: copies: 2 + 2
B24: H237-MB628/MRAL-k0 (antibody, mouse IgG1, kappa)
heavy: B1 heavy with K231A, D235L
light: not shown
notes: copies: 2 + 2
B25: H237-MB630/MRAL-k0 (antibody, mouse IgG1, kappa)
heavy: B1 heavy with K231N, D235L
light: not shown
notes: copies: 2 + 2
B26: H237-MB625/MRAL-k0 (antibody, mouse IgG1, kappa)
heavy: B1 heavy with P230N, K231Y, D235L
light: not shown
notes: copies: 2 + 2
B27: H237-MB629/MRAL-k0 (antibody, mouse IgG1, kappa)
heavy: B1 heavy with E229I, K231A, D235L
light: not shown
notes: copies: 2 + 2
B28: H237-MB631/MRAL-k0 (antibody, mouse IgG1, kappa)
heavy: B1 heavy with E229Q, K231N, D235L
light: not shown
notes: copies: 2 + 2
B29: H237-MB624/MRAL-k0 (antibody, mouse IgG1, kappa)
heavy: B1 heavy with P230D, K231Y, D235L
light: not shown
notes: copies: 2 + 2
B30: H237-MB626/MRAL-k0 (antibody, mouse IgG1, kappa)
heavy: B1 heavy with P230T, K231Y, D235L
light: not shown
notes: copies: 2 + 2
B31: H237-MB632/MRAL-k0 (antibody, mouse IgG1, kappa)
heavy: B1 heavy with P230A, K231Y, D235N
light: not shown
notes: copies: 2 + 2
B32: H237-MB594/MRAL-k0 (antibody, mouse IgG1, kappa)
heavy: B1 heavy with P230V, K231P, V233E, D235S
light: not shown
notes: copies: 2 + 2
B33: H237-MB645/MRAL-k0 (antibody, mouse IgG1, kappa)
heavy: B1 heavy with P230V, K231Y, D235Y
light: not shown
notes: copies: 2 + 2

Molecular target: T1, mouse FcγRIII extracellular domain, …
Assay: SPR (Biacore T200); KD of H237-mIgG1/MRAL-k0 / KD of variant

Row | Binder | relative mFcγRIII-binding activity (mIgG1 = 1)
1 | B1 | 2.14 fold
2 | B2 | 0.23 fold
3 | B3 | 2.01 fold
4 | B4 | 0.13 fold
5 | B5 | 0.12 fold
6 | B6 | 0.32 fold
7 | B7 | 0.84 fold
8 | B8 | 0.07 fold
9 | B9 | 1.68 fold
10 | B10 | 0.09 fold
11 | B11 | 0.16 fold
12 | B12 | 0.14 fold
13 | B13 | 0.3 fold
14 | B14 | 0.9 fold
15 | B15 | 0.57 fold
16 | B16 | 0.4 fold
17 | B17 | 1.02 fold
18 | B18 | 0.15 fold
19 | B19 | 0.06 fold
20 | B20 | 1.75 fold
21 | B21 | 1.83 fold

molecular target: T2, mouse FcγRII extracellular domain, …; assay: as above

Row | Binder | relative mFcγRII-binding activity (mIgG1 = 1)
22 | B1 | 14 fold
23 | B2 | 3.15 fold
24 | B3 | 8.03 fold
25 | B4 | 1.63 fold
26 | B5 | 0.22 fold
27 | B6 | 2.66 fold
28 | B7 | 10.9 fold
29 | B8 | 0.23 fold
30 | B9 | 7.57 fold
31 | B10 | 1.11 fold
32 | B11 | 0.62 fold
33 | B12 | 0.59 fold
34 | B13 | 0.81 fold
35 | B14 | 7.7 fold
36 | B15 | 4.06 fold
37 | B16 | 3.83 fold
38 | B17 | 5.37 fold
39 | B18 | 0.84 fold
40 | B19 | 0.24 fold
41 | B20 | 8.97 fold
42 | B21 | 13.9 fold

molecular target: T3, mouse FcγRII extracellular domain, …; assay: SPR Biacore T200, KD ratio
Procedure: (§1) Each altered antibody was analyzed for its interaction with each Fcγ receptor prepared above using Biacore T100 (GE Healthcare Japan Corp.), Biacore T200 (GE Healthcare Japan Corp.), Biacore A100, or Biacore 4000. The running buffer used was HBS-EP+ (GE Healthcare Japan Corp.). The assay temperature was set to 25° C. The sensor chips used were chips prepared by immobilizing Protein L (ACTIGEN or BioVision) onto Series S Sensor Chip CM5 (GE Healthcare Japan Corp.) or Series S Sensor Chip CM4 (GE Healthcare Japan Corp.) by the amine coupling method.
(§2) In order to calculate the KD value of each altered antibody for FcγR, kinetic analysis was conducted according to the following method: first, the antibody of interest was captured onto any of these chips and allowed to interact with mFcγR diluted with a running buffer. For the obtained sensorgram, the assay results were globally fit into the 1:1 Langmuir binding model using Biacore Evaluation Software to calculate an association rate constant ka (L/mol/s) and a dissociation rate constant kd (1/s). From these values, the dissociation constant KD (mol/L) was calculated.

Row | Binder | relative mFcγRII-binding activity (mIgG1 = 1)
43 | B22 | 0.53 fold
44 | B23 | 0.32 fold
45 | B24 | 2.2 fold
46 | B25 | 14.3 fold
47 | B26 | 0.67 fold
48 | B27 | 0.38 fold
49 | B28 | 4.29 fold
50 | B29 | 0.8 fold
51 | B30 | 0.81 fold
52 | B31 | 3.64 fold

Molecular target: T4, mouse FcγRIII extracellular domain, …
Assay: SPR Biacore T200, KD ratio
Procedure: as §1, §2

Row | Binder | relative mFcγRIII-binding activity (mIgG1 = 1)
53 | B22 | 0.09 fold
54 | B23 | 0.09 fold
55 | B24 | 0.06 fold
56 | B25 | 0.25 fold
57 | B26 | 0.12 fold
58 | B27 | 0.04 fold
59 | B28 | 0.28 fold
60 | B29 | 0.1 fold
61 | B30 | 0.12 fold
62 | B31 | 0.18 fold

molecular target: T5, mouse FcγRII; assay: SPR (Biacore), antibody captured on Protein L
Procedure: as §1, §2

Row | Binder | Kd
63 | B32 | 115 nM and 250 nM
64 | B33 | 180 nM and 307 nM

Molecular target: T6, mouse FcγRIII
Assay: SPR (Biacore), antibody captured on Protein L
Procedure: as §1, §2

Row | Binder | Kd
65 | B32 | 3230 nM and 9030 nM
66 | B33 | 1420 nM and 2360 nM
